Results as given in patent EP2112167A2 (Genentech, Inc., dated 2009).

Experiments:
EGFR = molecular target: T1, EGFR (UniProt P00533 25-645, limits assumed); experiment: not described (cited: Fendly et al.)
T1 construct: also called ErbB1; epidermal growth factor receptor

ErbB3 = molecular target: T2, ErbB3 (human, UniProt P21860 20-1342); experiment: not described
T2 construct: whole, on cells; In the co-immunoprecipitation it is the endogenous receptor of the cells (lysates); also called HER3
T2 sequence (P21860 20-1342): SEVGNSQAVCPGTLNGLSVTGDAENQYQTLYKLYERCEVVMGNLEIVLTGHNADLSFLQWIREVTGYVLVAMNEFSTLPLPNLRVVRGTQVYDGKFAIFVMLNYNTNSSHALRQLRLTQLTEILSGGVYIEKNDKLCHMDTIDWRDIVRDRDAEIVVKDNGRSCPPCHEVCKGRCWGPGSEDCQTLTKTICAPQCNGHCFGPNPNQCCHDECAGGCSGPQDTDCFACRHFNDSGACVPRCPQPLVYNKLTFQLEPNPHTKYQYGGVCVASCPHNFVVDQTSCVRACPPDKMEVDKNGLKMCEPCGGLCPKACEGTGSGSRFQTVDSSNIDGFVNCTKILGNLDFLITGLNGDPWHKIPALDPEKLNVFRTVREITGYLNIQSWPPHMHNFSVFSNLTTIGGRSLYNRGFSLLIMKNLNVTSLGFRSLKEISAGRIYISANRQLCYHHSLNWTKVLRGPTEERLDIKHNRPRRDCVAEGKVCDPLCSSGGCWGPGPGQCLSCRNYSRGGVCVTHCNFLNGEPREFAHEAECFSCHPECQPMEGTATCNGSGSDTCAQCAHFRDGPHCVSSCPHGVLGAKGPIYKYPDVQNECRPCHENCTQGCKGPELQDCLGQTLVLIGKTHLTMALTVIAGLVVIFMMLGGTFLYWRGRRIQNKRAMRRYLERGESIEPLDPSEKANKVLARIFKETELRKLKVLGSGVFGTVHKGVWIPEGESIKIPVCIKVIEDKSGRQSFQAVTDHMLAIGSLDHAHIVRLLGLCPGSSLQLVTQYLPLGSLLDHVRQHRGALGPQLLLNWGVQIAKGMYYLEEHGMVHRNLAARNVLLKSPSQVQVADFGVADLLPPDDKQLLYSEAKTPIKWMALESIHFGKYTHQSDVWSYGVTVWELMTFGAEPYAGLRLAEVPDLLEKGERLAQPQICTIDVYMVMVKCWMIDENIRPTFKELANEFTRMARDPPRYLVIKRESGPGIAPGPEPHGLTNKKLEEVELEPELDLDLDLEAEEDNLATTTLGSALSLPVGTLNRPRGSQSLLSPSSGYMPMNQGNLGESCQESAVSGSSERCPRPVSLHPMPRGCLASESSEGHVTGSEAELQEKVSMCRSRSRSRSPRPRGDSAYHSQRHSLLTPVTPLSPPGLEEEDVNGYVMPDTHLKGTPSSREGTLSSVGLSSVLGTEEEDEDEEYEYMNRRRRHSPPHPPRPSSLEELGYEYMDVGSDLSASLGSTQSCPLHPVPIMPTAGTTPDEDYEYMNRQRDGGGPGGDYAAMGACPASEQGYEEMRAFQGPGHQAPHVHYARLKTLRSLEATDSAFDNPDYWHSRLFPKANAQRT

ErbB4 = molecular target: T3, ErbB4 (UniProt Q15303 26-649, limits assumed); experiment: not described
T3 construct: also called HER4
T3 sequence (looked up): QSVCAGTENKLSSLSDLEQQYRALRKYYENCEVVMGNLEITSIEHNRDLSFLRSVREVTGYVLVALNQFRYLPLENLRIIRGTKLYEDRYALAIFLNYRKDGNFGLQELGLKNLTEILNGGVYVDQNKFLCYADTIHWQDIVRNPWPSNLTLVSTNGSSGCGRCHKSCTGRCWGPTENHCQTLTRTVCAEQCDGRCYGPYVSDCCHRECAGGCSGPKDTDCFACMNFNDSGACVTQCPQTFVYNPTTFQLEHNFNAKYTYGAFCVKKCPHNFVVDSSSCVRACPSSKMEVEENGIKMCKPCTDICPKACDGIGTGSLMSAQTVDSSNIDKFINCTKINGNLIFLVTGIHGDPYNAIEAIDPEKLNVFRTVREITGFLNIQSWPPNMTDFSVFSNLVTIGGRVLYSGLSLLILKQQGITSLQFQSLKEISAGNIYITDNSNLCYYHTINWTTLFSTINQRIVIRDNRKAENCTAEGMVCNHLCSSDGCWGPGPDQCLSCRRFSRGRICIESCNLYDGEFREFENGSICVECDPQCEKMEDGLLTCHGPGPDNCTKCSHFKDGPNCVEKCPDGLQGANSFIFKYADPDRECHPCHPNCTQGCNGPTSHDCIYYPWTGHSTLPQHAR

binding result (EGFR): no binding
binding result (ErbB3): no binding
binding result (ErbB4): no binding
B1: murine monoclonal antibody 2C4 (antibody, V domains shown)
VH: EVQLQQSGPELVKPGTSVKISCKASGFTFTDYTMDWVKQSHGKSLEWIGDVNPNSGGSIYNQRFKGKASLTVDRSSRIVYMELRSLTFEDTAVYYCARNLGPSFYFDYWGQGTTLTVSS
VL: DTVMTQSHKIMSTSVGDRVSITCKASQDVSIGVAWYQQRPGQSPKLLIYSASYRYTGVPDRFTGSGSGTDFTFTISSVQAEDLAVYYCQQYYIYPYTFGGGTKLEIK
notes: Intact murine monoclonal antibody from hybridoma; also called mu 2C4; ATCC HB-12697
